target: DLG1_1, Q12959; experiment: holdup assay; settings: plain residues with an end cap or a label only (N-terminal biotin on a linker: (peg)3)

Binder	pKd
YDEPTTTTSVPL [SARS-Cov2-3a, P0DTC3]	below the threshold

target: SCRIB_3, Q14160; experiment: holdup assay; settings: plain residues with an end cap or a label only (N-terminal biotin on a linker: (peg)3)
Sequence (Q14160 999-1103): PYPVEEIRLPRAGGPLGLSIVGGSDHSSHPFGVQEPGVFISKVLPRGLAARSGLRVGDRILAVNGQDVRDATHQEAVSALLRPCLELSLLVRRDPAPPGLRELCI

Binder	pKd
YDEPTTTTSVPL [SARS-Cov2-3a, P0DTC3]	below the threshold

target: T1, NHERF3_4, Q5T2W1; experiment: holdup assay; settings: plain residues with an end cap or a label only (N-terminal biotin on a linker: (peg)3)
T1 sequence (Q5T2W1 373-468, limits assumed, looked up): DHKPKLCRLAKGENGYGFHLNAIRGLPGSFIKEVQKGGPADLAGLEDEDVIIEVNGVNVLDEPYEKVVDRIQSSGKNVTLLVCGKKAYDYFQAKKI

Binder	pKd
YDEPTTTTSVPL [SARS-Cov2-3a, P0DTC3]	4.29

target: TJP2_1, Q9UDY2; experiment: holdup assay; settings: plain residues with an end cap or a label only (N-terminal biotin on a linker: (peg)3)
Sequence (Q9UDY2 24-128): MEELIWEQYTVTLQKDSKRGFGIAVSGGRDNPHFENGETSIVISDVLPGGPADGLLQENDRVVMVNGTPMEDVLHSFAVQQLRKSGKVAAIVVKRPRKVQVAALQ

Binder	pKd
YDEPTTTTSVPL [SARS-Cov2-3a, P0DTC3]	below the threshold

target: SCRIB_1, Q14160; experiment: holdup assay; settings: plain residues with an end cap or a label only (N-terminal biotin on a linker: (peg)3)
Sequence (Q14160 718-814): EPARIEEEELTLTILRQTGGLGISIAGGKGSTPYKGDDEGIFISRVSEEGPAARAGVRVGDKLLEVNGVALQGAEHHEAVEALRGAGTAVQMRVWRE

Binder	pKd
YDEPTTTTSVPL [SARS-Cov2-3a, P0DTC3]	below the threshold

target: Inadl_2, Q8NI35; experiment: holdup assay; settings: plain residues with an end cap or a label only (N-terminal biotin on a linker: (peg)3)
Sequence (Q8NI35 238-335): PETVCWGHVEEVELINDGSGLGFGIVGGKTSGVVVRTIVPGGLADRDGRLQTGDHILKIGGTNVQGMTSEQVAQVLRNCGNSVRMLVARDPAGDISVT

Binder	pKd
YDEPTTTTSVPL [SARS-Cov2-3a, P0DTC3]	below the threshold

target: SNX27, Q96L92; experiment: holdup assay; settings: plain residues with an end cap or a label only (N-terminal biotin on a linker: (peg)3)

Binder	pKd
YDEPTTTTSVPL [SARS-Cov2-3a, P0DTC3]	below the threshold

target: T2, MPDZ_12, O75970; experiment: holdup assay; settings: plain residues with an end cap or a label only (N-terminal biotin on a linker: (peg)3)
T2 sequence (O75970 1857-1958, limits assumed, looked up): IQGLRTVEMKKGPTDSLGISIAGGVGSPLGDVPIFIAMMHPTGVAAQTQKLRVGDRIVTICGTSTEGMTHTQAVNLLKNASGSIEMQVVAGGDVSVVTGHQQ

Binder	pKd
YDEPTTTTSVPL [SARS-Cov2-3a, P0DTC3]	below the threshold

target: T3, PARD3B_1, Q8TEW8; experiment: holdup assay; settings: plain residues with an end cap or a label only (N-terminal biotin on a linker: (peg)3)
T3 sequence (Q8TEW8 196-299, limits assumed, looked up): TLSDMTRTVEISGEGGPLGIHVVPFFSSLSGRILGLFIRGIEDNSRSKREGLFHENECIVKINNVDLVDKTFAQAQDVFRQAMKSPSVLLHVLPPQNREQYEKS

Binder	pKd
YDEPTTTTSVPL [SARS-Cov2-3a, P0DTC3]	4.12

target: T4, DLG3_3, Q92796; experiment: holdup assay; settings: plain residues with an end cap or a label only (N-terminal biotin on a linker: (peg)3)
T4 sequence (Q92796 374-475, limits assumed, looked up): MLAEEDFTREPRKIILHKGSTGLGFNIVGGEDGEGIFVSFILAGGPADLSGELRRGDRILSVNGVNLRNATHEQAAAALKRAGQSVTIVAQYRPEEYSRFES

Binder	pKd
YDEPTTTTSVPL [SARS-Cov2-3a, P0DTC3]	below the threshold

target: T5, DFNB31_2, Q9P202; experiment: holdup assay; settings: plain residues with an end cap or a label only (N-terminal biotin on a linker: (peg)3)
T5 sequence (Q9P202 274-371, limits assumed, looked up): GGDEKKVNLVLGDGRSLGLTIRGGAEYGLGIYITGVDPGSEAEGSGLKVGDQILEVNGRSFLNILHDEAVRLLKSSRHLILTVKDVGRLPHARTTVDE

Binder	pKd
YDEPTTTTSVPL [SARS-Cov2-3a, P0DTC3]	below the threshold

target: MAST2, Q6P0Q8; experiment: holdup assay; settings: plain residues with an end cap or a label only (N-terminal biotin on a linker: (peg)3)
Sequence (Q6P0Q8 1099-1202): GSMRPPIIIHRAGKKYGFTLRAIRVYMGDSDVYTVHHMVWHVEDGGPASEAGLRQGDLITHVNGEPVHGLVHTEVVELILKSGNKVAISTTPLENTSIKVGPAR

Binder	pKd
YDEPTTTTSVPL [SARS-Cov2-3a, P0DTC3]	below the threshold

target: T6, DFNB31_3, Q9P202; experiment: holdup assay; settings: plain residues with an end cap or a label only (N-terminal biotin on a linker: (peg)3)
T6 sequence (Q9P202 811-907, limits assumed, looked up): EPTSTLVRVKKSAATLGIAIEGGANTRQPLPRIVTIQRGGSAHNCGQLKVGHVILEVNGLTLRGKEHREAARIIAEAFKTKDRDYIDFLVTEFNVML

Binder	pKd
YDEPTTTTSVPL [SARS-Cov2-3a, P0DTC3]	below the threshold

target: T7, GRIP1_5, Q9Y3R0; experiment: holdup assay; settings: plain residues with an end cap or a label only (N-terminal biotin on a linker: (peg)3)
T7 sequence (Q9Y3R0 568-668, limits assumed, looked up): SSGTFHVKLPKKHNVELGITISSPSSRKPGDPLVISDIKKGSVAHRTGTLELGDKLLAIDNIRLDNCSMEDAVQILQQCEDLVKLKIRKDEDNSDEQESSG

Binder	pKd
YDEPTTTTSVPL [SARS-Cov2-3a, P0DTC3]	below the threshold

target: T8, PDZD2_2, O15018; experiment: holdup assay; settings: plain residues with an end cap or a label only (N-terminal biotin on a linker: (peg)3)
T8 sequence (O15018 329-429, limits assumed, looked up): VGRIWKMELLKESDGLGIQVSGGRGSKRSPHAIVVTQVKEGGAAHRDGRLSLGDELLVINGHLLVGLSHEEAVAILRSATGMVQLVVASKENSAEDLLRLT

Binder	pKd
YDEPTTTTSVPL [SARS-Cov2-3a, P0DTC3]	below the threshold

target: GRIP2_5, Q9C0E4; experiment: holdup assay; settings: plain residues with an end cap or a label only (N-terminal biotin on a linker: (peg)3)
Sequence (Q9C0E4 544-642): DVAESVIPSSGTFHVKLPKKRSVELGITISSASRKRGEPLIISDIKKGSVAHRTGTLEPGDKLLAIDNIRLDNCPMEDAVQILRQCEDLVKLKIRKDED

Binder	pKd
YDEPTTTTSVPL [SARS-Cov2-3a, P0DTC3]	below the threshold

target: PDZRN4_1, Q6ZMN7; experiment: holdup assay; settings: plain residues with an end cap or a label only (N-terminal biotin on a linker: (peg)3)
Sequence (Q6ZMN7 213-318): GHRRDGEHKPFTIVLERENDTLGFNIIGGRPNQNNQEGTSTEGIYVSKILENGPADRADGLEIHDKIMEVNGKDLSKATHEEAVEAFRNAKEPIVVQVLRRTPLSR

Binder	pKd
YDEPTTTTSVPL [SARS-Cov2-3a, P0DTC3]	below the threshold

target: T9, RAPGEF6, Q8TEU7; experiment: holdup assay; settings: plain residues with an end cap or a label only (N-terminal biotin on a linker: (peg)3)
T9 sequence (Q8TEU7 525-625, limits assumed, looked up): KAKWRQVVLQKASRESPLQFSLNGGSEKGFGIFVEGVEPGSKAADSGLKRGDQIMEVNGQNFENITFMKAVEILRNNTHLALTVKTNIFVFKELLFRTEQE

Binder	pKd
YDEPTTTTSVPL [SARS-Cov2-3a, P0DTC3]	below the threshold

target: T10, LIN7B, Q9HAP6; experiment: holdup assay; settings: plain residues with an end cap or a label only (N-terminal biotin on a linker: (peg)3)
T10 sequence (Q9HAP6 88-185, limits assumed, looked up): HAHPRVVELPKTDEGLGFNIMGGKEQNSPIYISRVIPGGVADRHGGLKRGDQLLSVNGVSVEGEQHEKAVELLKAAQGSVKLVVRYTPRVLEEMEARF

Binder	pKd
YDEPTTTTSVPL [SARS-Cov2-3a, P0DTC3]	below the threshold

target: T11, LRRC7, Q96NW7; experiment: holdup assay; settings: plain residues with an end cap or a label only (N-terminal biotin on a linker: (peg)3)
T11 sequence (Q96NW7 1440-1537, limits assumed, looked up): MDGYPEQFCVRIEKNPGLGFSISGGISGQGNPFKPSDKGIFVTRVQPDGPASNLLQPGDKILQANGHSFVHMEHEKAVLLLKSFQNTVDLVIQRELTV

Binder	pKd
YDEPTTTTSVPL [SARS-Cov2-3a, P0DTC3]	below the threshold

target: NHERF2_2, Q15599; experiment: holdup assay; settings: plain residues with an end cap or a label only (N-terminal biotin on a linker: (peg)3)
Sequence (Q15599 142-238): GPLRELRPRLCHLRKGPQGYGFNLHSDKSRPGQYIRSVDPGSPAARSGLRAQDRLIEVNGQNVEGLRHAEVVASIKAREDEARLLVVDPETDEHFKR

Binder	pKd
YDEPTTTTSVPL [SARS-Cov2-3a, P0DTC3]	below the threshold

target: T12, MPP2, Q14168; experiment: holdup assay; settings: plain residues with an end cap or a label only (N-terminal biotin on a linker: (peg)3)
T12 sequence (Q14168 180-250, limits assumed, looked up): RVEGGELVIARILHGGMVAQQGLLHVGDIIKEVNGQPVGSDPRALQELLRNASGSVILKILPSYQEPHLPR

Binder	pKd
YDEPTTTTSVPL [SARS-Cov2-3a, P0DTC3]	below the threshold

target: LNX1_3, Q8TBB1; experiment: holdup assay; settings: plain residues with an end cap or a label only (N-terminal biotin on a linker: (peg)3)
Sequence (Q8TBB1 500-596): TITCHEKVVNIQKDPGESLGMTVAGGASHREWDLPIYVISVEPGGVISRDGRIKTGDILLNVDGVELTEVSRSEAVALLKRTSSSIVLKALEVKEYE

Binder	pKd
YDEPTTTTSVPL [SARS-Cov2-3a, P0DTC3]	below the threshold

target: T13, GRIP1_4, Q9Y3R0; experiment: holdup assay; settings: plain residues with an end cap or a label only (N-terminal biotin on a linker: (peg)3)
T13 sequence (Q9Y3R0 467-571, limits assumed, looked up): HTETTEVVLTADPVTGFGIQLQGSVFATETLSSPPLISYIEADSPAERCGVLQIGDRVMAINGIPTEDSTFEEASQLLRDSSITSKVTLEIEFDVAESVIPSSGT

Binder	pKd
YDEPTTTTSVPL [SARS-Cov2-3a, P0DTC3]	below the threshold

Reference: publication PMC9482650, “Quantitative fragmentomics allow affinity mapping of interactomes” (Nature Communications, 2022)
